Among the data in publication PMC10758103 are stoichiometry N values, retold here.

The assay deals with T1, p32 stably overexpressed from lentiviral pCDH-p32, Q07021.
T1 chain: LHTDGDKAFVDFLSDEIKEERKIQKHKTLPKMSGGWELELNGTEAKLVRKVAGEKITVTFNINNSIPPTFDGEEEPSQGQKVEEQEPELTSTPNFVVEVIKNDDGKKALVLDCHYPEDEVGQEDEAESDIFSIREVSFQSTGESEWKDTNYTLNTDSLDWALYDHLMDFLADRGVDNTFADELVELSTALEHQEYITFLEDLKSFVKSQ
Nature of the assay: cross-linking; 786-O-pCDH and 786-O-p32 cells treated with gradients of elesclomol and CuSO4; 0.1 mM disuccinimidyl suberate (DSS) on cells, 30 minutes at room temperature, quenched with 50 mM Tris; 8% SDS-PAGE and western blot. Particulars: remark: other sources report otherwise. For orientation: A western blot detects proteins with antibodies after separation by electrophoresis.

B1: p32 stably overexpressed from lentiviral pCDH-p32, Q07021 74-282 (natural protein)
chain: LHTDGDKAFVDFLSDEIKEERKIQKHKTLPKMSGGWELELNGTEAKLVRKVAGEKITVTFNINNSIPPTFDGEEEPSQGQKVEEQEPELTSTPNFVVEVIKNDDGKKALVLDCHYPEDEVGQEDEAESDIFSIREVSFQSTGESEWKDTNYTLNTDSLDWALYDHLMDFLADRGVDNTFADELVELSTALEHQEYITFLEDLKSFVKSQ
A word on the stoichiometry N: it is a count of units in the complex or per binding partner. Consider B1, for which the stoichiometry N worked out at 2.
